Laboratory results reported in the supplement of paper PMC10567573.
± gives the standard deviation.

Assay: protein stability index of a GFP-peptide fusion (GPS, HEK-293T) (PSI 1-6); higher = more stable
[1] = treatment: DMSO, c terminus: a fixed tail appended
[2] = treatment: MLN4924 1 uM, 8 h, c terminus: a fixed tail appended
[3] = treatment: DMSO, c terminus: native
[4] = treatment: MLN4924 1 uM, 8 h, c terminus: native
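Also: 24-mer peptide tiles fused after GFP, lentivirally expressed, FACS-sorted into six equal bins by GFP/DsRed ratio, decoded by Illumina sequencing, PSI is the read-weighted mean bin number.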

Sequence	protein stability index [1]	protein stability index [2]	protein stability index [3]	protein stability index [4]
PVKASRSHQELHRELLMNHRRGLG [FAM107A]	3.73 ± 0.27	3.95 ± 0.42	–	–
EEELQEIASEPTNKHLFYAEDFST [MATN2]	5.26 ± 0.41	5.21 ± 0.32	–	–
LAGGKLILSLEGGYNLRALAEGVS [HDAC6]	2.99 ± 0.76	2.31 ± 0.47	–	–
DILPRWAIIGWLLTTCTSNVAASN [INTS3]	3.24 ± 0.47	3.08 ± 0.51	–	–
TMLIVHHRTHTGERPYGCDECEKA [ZNF649]	3.75 ± 0.32	3.7 ± 0.49	–	–
AFLGDAEIIELLILSGARVNAKDN [ANKRD44]	2.45 ± 0.73	2.32 ± 0.23	–	–
TQSVMGFDPLPPSDTIYSYVRPER [TCF25]	3.52 ± 0.32	3.73 ± 0.12	–	–
ASSPKGTIENILDNDPRDLIGDFS [CDC25A]	4.91 ± 0.21	4.82 ± 0.14	–	–
LPNTLLRKDKDVARLQDFQELELV [ANKRD40]	3.76 ± 0.11	3.66 ± 0.29	–	–
RSIRQYYKKGIIRKPDISQRLVYQ [SPDEF]	2.84 ± 0.24	2.97 ± 0.42	–	–
NPTEPATIIFTAAREGRETLKCLS [TOR1AIP2]	3.71 ± 0.25	3.69 ± 0.12	–	–
PSPAAVPRPPSNPPARGTLKTSNL [TRAF3IP2]	5.12 ± 0.1	4.94 ± 0.21	–	–
EADKNDKAVKDLVVLLFETALLSS [HSP90AB1]	2.13 ± 0.067	2.2 ± 0.39	–	–
LPSWADICTNLCEALQNFFSLACS [M1AP]	2.89 ± 0.31	2.9 ± 0.14	–	–
YSIPEELEKGSFVGNISKDLGLAP [PCDHGA10]	3.59 ± 0.4	3.7 ± 0.29	–	–
VCDSCHEAITDEERAPTATFHDSK [WDFY2]	5.02 ± 0.21	5.16 ± 0.13	–	–
LVFQRRMDGQTDFWRDWEDYAHGF [TNXB]	2.64 ± 0.61	1.93 ± 0.51	–	–
CQILELLNAELEEKMMQEAEKLKA [CCDC89]	3.76 ± 0.26	3.65 ± 0.17	–	–
AGPGAAEPLPVERDPAAGAAPFRF [ZNF511]	4.38 ± 0.17	4.64 ± 0.29	–	–
SQIQYMNTVVSTYVTTNVSLIPPR [TMEM106C]	2.12 ± 0.22	2.07 ± 0.12	–	–
VTFAAMQAQQGRSSLVWLFSQLYL [MCOLN1]	3.03 ± 0.67	2.75 ± 0.47	–	–
SRNFIERNHMENGGDHRYVNNYTN [TRIM29]	3.46 ± 0.22	3.57 ± 0.18	–	–
KTLAVKNEEIQSFIYSLKQMLLNV [FSD1]	2.52 ± 0.37	2.14 ± 0.21	–	–

Sequence	protein stability index [1]	protein stability index [2]	protein stability index [3]	protein stability index [4]
STPRCAQQAALPRLSRRMASQHSY [CBY2]	2.3 ± 0.29	2.37 ± 0.079	–	–
YKSWLKNLAKEQLSRENIQSSLLE [PPEF2]	2.72 ± 0.24	2.86 ± 0.13	–	–
DLAEFAKKQPWWRKLFGQESGPSA [FUNDC2]	2.65 ± 0.13	2.58 ± 0.17	–	–
MEAQAQGLLETEPLQGTDEDAVAS [TPD52L1]	5.56 ± 0.19	5.56 ± 0.16	–	–
VNLQRFGMNGQMLCNLGKERFLEL [ETS2]	2.27 ± 0.36	2.27 ± 0.33	–	–
EPPVTMIFMGYQNVEDEAETKKVL [PALM]	4.07 ± 0.37	4.09 ± 0.051	–	–
QQACTHTKETEQLRSQLQTLKQQH [CCDC89]	4.71 ± 0.17	4.65 ± 0.17	–	–
CPVEYNNDTNSFTVDCEPSDLFRL [CDS2]	3.94 ± 0.21	4.03 ± 0.17	–	–
ADNMLEYKSWLKNLAKEQLSRENI [PPEF2]	3.61 ± 0.27	3.75 ± 0.38	–	–
DAVGMLGIEEVTYENCLQALADVE [NLN]	4.25 ± 0.27	3.9 ± 0.34	–	–
KESLCISITVSKVDKDQPSILNSC [FBXO34]	2.28 ± 0.33	2.09 ± 0.28	–	–
ILEFAEKEGMVSSGQNLLAVESQ [PTPN9]	–	–	2.96 ± 0.65	3.03 ± 0.37
NTKLRQAERLFENQLVGPESIAHI [APMAP]	3.22 ± 0.12	3.42 ± 0.48	–	–
AMAAAEGSSGPAGLTLGRSFSNYR [SEPHS2]	3.82 ± 0.16	3.63 ± 0.23	–	–
TVILIESTNEITYGLPIMVTLMVA [CLCN6]	3.47 ± 0.47	3.32 ± 0.29	–	–
SSATTYFWYREALDISDSISESGG [SLC6A17]	2.62 ± 0.46	2.73 ± 0.34	–	–
CSHSFLLAVMGYDRYIAICNPLRY [OR10K2]	2.87 ± 0.52	2.88 ± 0.58	–	–
TLEGHQRAIMAHMTVEEIYKDRQK [FLOT1]	4.52 ± 0.13	4.7 ± 0.19	–	–
SVGHNWRKRMGTRRGRHEQSPTSR [C22orf15]	4.32 ± 0.065	4.49 ± 0.25	–	–
FMECLVDARMLDHLTKKDLRVHLK [PPFIA4]	2.4 ± 0.32	2.67 ± 0.24	–	–
SADVNARDKNWQTPLHVAAANKAV [ANKRD44]	4.18 ± 0.31	4.07 ± 0.18	–	–
AKHMGLEPPPEVWQVLKTHPGDPR [POLD4]	3.77 ± 0.25	3.93 ± 0.48	–	–
DAVTIPCGHTFCRLCLPALSQMGA [TRIM15]	2.47 ± 0.35	2.17 ± 0.27	–	–

Sequence	protein stability index [1]	protein stability index [2]	protein stability index [3]	protein stability index [4]
DTVEIREVHERNDGIDPFPLLMNR [EFHC1]	4.3 ± 0.15	4.42 ± 0.25	–	–
MTVGILSNSLAIAILMKAYQRFRQ [PTGFR]	2.17 ± 0.28	2.2 ± 0.31	–	–
HYPFLGAMGDHSKKKPGTAMCVGC [ISL2]	2.86 ± 0.34	3.25 ± 0.43	–	–
LGLGTRESHSCPQQVPMPPGQEAQ [NEK8]	4.98 ± 0.19	4.87 ± 0.097	–	–
IAERLGCTLPQLAIAWCLRNEGVS [KCNAB2]	2.88 ± 0.44	2.71 ± 0.66	–	–
GELRLGKNLYTNEYVAIKLEPMKS [CSNK1G3]	2.32 ± 0.29	2.27 ± 0.7	–	–
ALARKQAQEQLRPQTPEPVEGRKH [RSPH3]	5.33 ± 0.18	5.31 ± 0.28	–	–
ELDELASKAPVLTYGQPKQAPPAD [EFHC1]	5.44 ± 0.25	5.59 ± 0.15	–	–
KNKKSSTGEASENGLEDIDRILER [TCF25]	5.22 ± 0.48	5.49 ± 0.18	–	–
EMREIRRKLRELQLRNCLRILMGE [BEX3]	2.35 ± 0.38	2.28 ± 0.38	–	–
KPVLAKDSSNPYPNFNFNISHQGD [AASDHPPT]	4.22 ± 0.22	4.01 ± 0.18	–	–
MNTEAEQQLLHHARNGNAEEVRQL [OSBPL1A]	5.24 ± 0.28	5.47 ± 0.12	–	–
DRHTKFFEEPEDPSNRSFFSEIIS [PPP2R2B]	3.38 ± 0.1	3.48 ± 0.23	–	–
EDVEAVQKLQDVLHEALQDYEAGQ [ESRRG]	4.92 ± 0.46	4.95 ± 0.51	–	–
AYIQCQFEDLNKRKDTKEIYTHFT [GNAI1]	2.14 ± 0.49	2.25 ± 0.3	–	–
LVQDQDLEAIRKQDLVELYLTNCE [ZER1]	3.61 ± 0.4	3.85 ± 0.38	–	–
KEEEEKDHNEAMKPEEPPQNLLRE [PCMTD1]	5.39 ± 0.77	5.88 ± 0.09	–	–
NLSSRWKNWWVRGILTLAMIAFFF [CDS2]	4.15 ± 0.14	4.04 ± 0.15	–	–
FDVVVCDQVSACIPVFRLARRRKK [ALG2]	2.59 ± 0.28	2.62 ± 0.2	–	–
SSSLAQHQRKHAGEKPFECRQRLI [ZNF8]	3.74 ± 0.18	3.69 ± 0.17	–	–
CSEDWVGYQRKCYFISTVKRSWTS [CD69]	2.36 ± 0.33	2.65 ± 0.49	–	–
EVYYDGQWGTVCDDDFSIHAAHVV [LOXL2]	2.62 ± 0.31	2.6 ± 0.37	–	–
SLRTLKPEGNILRDRFKSFQRRNM [NOP53]	3.22 ± 0.23	3.21 ± 0.21	–	–

Sequence	protein stability index [1]	protein stability index [2]	protein stability index [3]	protein stability index [4]
SKQLTLEQLRREKIDLENTLEQEQ [CCDC6]	5.43 ± 0.26	5.2 ± 0.11	–	–
AAGELPTVECYNPRTNEWTYVAKM [KLHL13]	3.11 ± 0.37	3.2 ± 0.42	–	–
PESAIKFMAYEQIKRLVGSDQETL [SLC25A25]	3.31 ± 0.15	3.4 ± 0.25	–	–
LQQLLVLQPEQQLNIYKTLKTHLI [CDS1]	2.4 ± 0.55	2.17 ± 0.36	–	–
LVSRHDPASRRRVVEEVRRRATSG [LPCAT4]	4.5 ± 0.19	4.49 ± 0.23	–	–
LVNPTCQVLVKDFTFEGFSRLRFL [ZER1]	2.02 ± 0.23	2.27 ± 0.29	–	–
CSKSFRQRAGLIMHQVTHFRGLI [ZNF449]	–	–	2.92 ± 0.45	3.08 ± 0.35
CHLCVNYIEMQTDPANCDYVIVSG [YJU2B]	2.71 ± 0.26	2.57 ± 0.33	–	–
DVAVTVDRDRFMDEFFEQVEEIRG [STX1A]	4.35 ± 0.39	4.49 ± 0.25	–	–
EDMEASDYELEDETRPAKRITITE [WEE1]	5.42 ± 0.25	5.36 ± 0.17	–	–
PNSTFPIDKSMTVVLTFITPMLNP [OR4A15]	2.95 ± 0.38	2.97 ± 0.38	–	–
FKAWLHNSGTDQEQIHLLLSSQCF [M1AP]	2.6 ± 0.66	2.43 ± 0.39	–	–
SARDCKFTGNFFYNYMMGIEFNPR [DHCR7]	2.24 ± 0.44	2.07 ± 0.59	–	–
DEAKAPHWTSAPLTEASAHSHPPE [MAP2]	5.39 ± 0.16	5.37 ± 0.075	–	–
SRSNNMGIVGGFTQMIREGGARSL [SLC25A25]	3.17 ± 0.27	3.47 ± 0.18	–	–
LSASGPFESHDLLRKGFSCVKNEL [POMP]	3.37 ± 0.053	3.35 ± 0.43	–	–
PQGAVLVQREKDLPNYNWNSFGLR [KISS1]	3.04 ± 0.17	3.13 ± 0.32	–	–
EAYLASLRADQEKERKKREERERK [FAF2]	5.33 ± 0.35	5.46 ± 0.23	–	–
DNARLAADDFRTKYEHELALRQTV [KRT16]	4.01 ± 0.17	4.11 ± 0.26	–	–
VRSKYNDDIRKGIVLLEELLPKGS [FIS1]	2.87 ± 0.04	2.84 ± 0.14	–	–
